Assay results reported in the DeepSol protein solubility set.

Test: soluble on expression in E. coli; label from the status in PepcDB or PDB records

Row | Sequence | soluble on expression in E. coli
1 | MEPPKLLGVVLTTALLFHIALTAKQAVVSRKSKLCGNVECEEVLFKARVKRVMGINNDPSFLNLAENAIISVVAVKFSDRPDIMEGKLNGEGSNGFFYAGAIDIMPFAEFLRTAITDKKEMLMISQNPADIGDKRIVGFLHSETDLVRDFNAKNAQAAAENGLPAPEPIPIPEPAHTGHGHSHGGHGHSHGGHGHSHGHPAPTPAPTPAPKPIEEAPKPAEEPVKPADLEMDAEIERLIKEEEERMKNVAEQPPLVLQSLPETPEAQKLPEEPLEPVTPEPIPEAPVPIAQYIQEPTTTPAPLEAPAPVENAPNLPTPTFSVDDLMAQAARDALNSNSIVPDAPKVEEPEPAPTPAPAPAEDPVVTPAPEELTGVCYKDDCQGLQTPPPPAPPPPAPAVPEEAQAPTPAPEEAPEAQIPAETAQIPPENAVPEAPEEPAPTTTPPPISAGEAEFLKWEEARQKREAVAAAPYEDAQAHQFVASPPPHVSSGLIELIRSSLGLGNITDSSVLLVVNLTFVAASFLVYIIIRSLSSGGESDILDRQAHFDLMNKHKQLQLQLNAKITEIQNLQANGAAAQRPEQPNYEPELLALRQQLAHLQSELQTAHAQRQEFEIHYHQIRELAEQKDHQIAQLTEQANDYQERLEKSQSELQELARHVDSARAELMDSQTSDYGRQQELMEKQAELEQIYVKIDNLTAENRDLTDKIAQLQVSDSLELEELEELRNKNLELQEQVKQLKEELEKEKSVAGSGNSGGWSDIDDNEVVEAVQPIETTPISSENSENLKKFEAEIAELKASLEKTEKELTKYRNLYNEKLTAISDKENRSQIEMEHKLKNAESDLQEAKRRAEEIGAEKKELSDRLNEMLKNLNQSMQKSAENDKMLTQLREEAFAKEKQLLEHDSVLRKKDDKIRELDAEFKRVKMEYVKLETKSFHDVRKLNMDVEELKTQLSMAGGVTSSRSIPDRLVSPLQEPIWDEPEPALQRVVLPLDGYSSMRRRSTRRSQLPFGAESPSDQEKKQAAPSHRRRSRSHGRQPPSFHDPYSMNPYLPGSSDSSFMSTSQPQFLPLNRQHSRSGHLMSNSANGPYSSGGSNGGRSPPPEMPLLSAIPPPGARKPLGKRPDSAHHLGK | not soluble
2 | MEPQLRCIGCGAAIQFENPKNAGYAPKSVLEKDAEEVICQRCFRLKHYNEVQDVPLDDDDFLSMLHRIGESKALVVNIVDIFDFNGSFIPGLPRFAADNPILLVGNKADLLPRSVKYPKLLRWMRRMAEELGLCPVDVCLVSAAKGIGMAKVMEAINRYREGGDVYVVGCTNVGKSTFINRIIEEATGKGNVITTSYFPGTTLDMIEIPLESGATLYDTPGIINHHQMAHFVDARDLKIITPKREIHPRVYQLNEGQTLFFGGLARLDYIKGGRRSFVCYMANELTVHRTKLEKADSLYANQLGELLSPPSKRYAAEFPPLVPRSLSVKERKTDIVFSGLGWVTCNDPGAQLVVHAPKGVDVFIRQSLI | soluble
3 | MEPTGMMVAAPTASLPEAIGGERNWDYRYTWIRDTAYVIEALATIGYKREAVSFLYDMMDVISRENKIRTIYSIDNSDDFVERELDFEGYRGSRPVRIGNKAVDQLQIDQYGSIVRAIHAMEKAGGVVNSYLWDFVEEMMAKIEYLWKYPDSSIWEFRTEPKQYVYSKVMSWAAFDSAITMARDLGLTAPIKKWKGIQDEIWNDVMTKGFDPQTNSFVQYYGSKNVDASLLRLPILGFIPANDERFIGTMKRIEDELMVDGYLFRRYREDDGLKGDEGSFLMLTFWYIEDLILMKRLKAARAALESIIEKANHLGLYSEEIDEKTGDFLGNFPQALSHLGIIRVAPKLEEAFLKRVSKINELEHHHHHH | not soluble
4 | MEPWKQCAQWLIHCKVLPTNHRVTWDSAQVFDLAQTLRDGVLLCQLLNNLRAHSINLKEINLRPQMSQFLCLKNIRTFLTACCETFGMRKSELFEAFDLFDVRDFGKVIETLSRLSRTPIALATGIRPFPTEESINDEDIYKGLPDLIDETLVEDEEDLYDCVYGEDEGGEVYEDLMKAEEAHQPKCPENDIRSCCLAEIKQTEEKYTETLESIEKYFMAPLKRFLTAAEFDSVFINIPELVKLHRNLMQEIHDSIVNKNDQNLYQVFINYKERLVIYGQYCSGVESAISSLDYISKSKEDVKLKLEECSKRANNGKFTLRDLLVVPMQRVLKYHLLLQELVKHTTDPTEKANLKLALDAMKDLAQYVNEVKRDNETLREIKQFQLSIENLNQPVLLFGRPQGDGEIRITTLDKHTKQERHIFLFDLAVIVCKRKGDNYEMKEIIDLQQYKIANNPTTDKENKKWSYGFYLIHTQGQNGLEFYCKTKDLKKKWLEQFEMALSNIRPDYADSNFHDFKMHTFTRVTSCKVCQMLLRGTFYQGYLCFKCGARAHKECLGRVDNCGRVNSGEQGTLKLPEKRTNGLRRTPKQVDPGLPKMQVIRNYSGTPPPALHEGPPLQLQAGDTVELLKGDAHSLFWQGRNLASGEVGFFPSDAVKPCPCVPKPVDYSCQPWYAGAMERLQAETELINRVNSTYLVRHRTKESGEYAISIKYNNEAKHIKILTRDGFFHIAENRKFKSLMELVEYYKHHSLKEGFRTLDTTLQFPYKEPEHSAGQRGNRAGNSLLSPKVLGIAIARYDFCARDMRELSLLKGDVVKIYTKMSANGWWRGEVNGRVGWFPSTYVEEDE | soluble
5 | MEQKKKKNIGFNIIKDDPTDGHRGFGAGALSLENVSPVIIDVEAGEAFVDMGAMHARSAVERGIKFLPDRSAVPNGKPYWIVWVTIERREDGPYYAGVTACEMTIDREARRGYKLLPEHVNRLDKSLKRHIIVDHMDAKSKRVLADFLKGHDIGMWNRSSDELKKGLEGEL | not soluble
6 | MEQLTVQGLVRLMGAGANLVCVVTDNERRTEAIVGQATARLKGAGSPLVWTCTDGFTRDGTVVPGTVDPVAALDHALAHPAPLMTLFKDLSWFWSDNPYVIRKLKEFAVRARGKAAVVLARDESVPAELREDIVVLGQGLPGIGEITAFLGQLKEREPVLAAACAGHPGLMDHLVVAAQGLDLVDIERGVRALRNVPEAAGHEMVRSLFETKQAVIRRSGIMEFVANDTAPEQVGGMENLKAWMERREQAFGLESIASGAALPKGILMMGIAGCGKSLFVKAIAARWRLPLIRLDMAAVYDGSFGTPESSLRKAFRTAEAVAPCVLWIDEIESGISVQGFKAEGGPASRLLGSFLTWMQEKKAPVFVAATANAIEMLPAEIIRKGRFDEVFYVGLPDAGAREDIFRIHLERQKADSARFDVPLLAGSTKGFSGAEIEQAVLSAAFEARADRRTLTQQDVIVAVSRTVPLSVTMAEQIKKIEAWAFKRAVPAAGKF | not soluble
7 | MEQMRFKPRPFVKPVKFKCKFCLDCCKGRHVYLTLNDIKRLIDAGYDPQDFLTISIEDGKIRFVLSVREWDLGCVFQDPETGLCKVHPHRPLICRIYPFMVSKKPLGIKGEKKFEINGKSFWLYYDENCPGINDEDGDTITPEEILKLGIKFEEELEATDLDGFLKILRSLEHHHHHH | soluble
8 | MERSQCGSRDRGVSGRPHLAPGLVVAAPPPPSPALPVPSGMQCARCRNHGVVSALKGHKRFCRWRDCACAKCTLIAERQRVMAAQVALRRQQAQEESEARGLQRLLCSGLSWPPGGRASGGGGRAENPQSTGGPAAGAALGLGALRQASGSATPAFEVFQQDYPEEKQEQKESKCESCQNGQEELISKSHQLYLGSSSRSNGVIGKQSIGSSISEYSNKPDSILSPHPGEQSGGEESPRSLSSSDLESGNESEWVKDLTATKASLPTVSSRPRDPLDILTKIFPNYRRSRLEGILRFCKGDVVQAIEQVLNGKEHKPDNRNLANSEELENTAFQRASSFSLAGIGFGTLGNKSAFSPLQTTSASYGGDSSLYGVNPRVGISPLRLAYSSAGRGLSGFMSPYLTPGLVPTLPFRPALDYAFSGMIRDSSYLSSKDSITCGRLYFRPNQDNP | soluble
9 | MESILITGASGFIGSFIVEEALKRKFGVWAGIRPTSSKKYLKNRKIHFLELDFAHPNELRAQLSGHKGTYNKFDYIIHCAGVTKCPDKNTFDYVNYLQTKYFIDTLKALNMVPKQFIYISTLSVFGPVREKDYSPIEAGDVPMPNTAYGLSKLKAELYIQSIPGFPYVIYRPTGVYGPRELDYFLMAKSIRQHVDFSVGFRRQDLTFVYVKDIVQAIFLGIEKKVTRRAYFLTDGKVYNSRVFSDLIQKELGNPFVIHVKCPLIVLKVISLLAEFIATRSGKSSTLNSDKYKIMKQRNWQCDITPAINELGYAPEYDLEKGVRETIDWYKNEGWL | not soluble
10 | MESVSCSAAAVRTGDMESQRDLSLVPERLQRREQERQLEVERRKQKRQNQEVEKENSHFFVATFARERAAVEELLERAESVERLEEAASRLQGLQKLINDSVFFLAAYDLRQGQEALARLQAALAERRRGLQPKKRFAFKTRGKDAASSTKVDAAPGIPPAVESIQDSPLPKKAEGDLGPSWVCGFSNLESQVLEKRASELHQRDVLLTELSNCTVRLYGNPNTLRLTKAHSCKLLCGPVSTSVFLEDCSDCVLAVACQQLRIHSTKDTRIFLQVTSRAIVEDCSGIQFAPYTWSYPEIDKDFESSGLDRSKNNWNDVDDFNWLARDMASPNWSILPEEERNIQWD | soluble
11 | MESYSQRQDHELQALEAIYGSDFQDLRPDARGRVREPPEINLVLYPQGLAGEEVYVQVELRVKCPPTYPDVVPEIDLKNAKGLSNESVNLLKSHLEELAKKQCGEVMIFELAHHVQSFLSEHNK | soluble
12 | METRKAEGEVIVVGAGLAGLVAAAELADAGRRVLILDQEGEQNLGGQAHWSFGGLFFVDSPEQRRLGIRDSLDLARRDWETAAGFDRPEDHWPRKWAEAYLEFAAGEKREWLHRQGMRWFPAVGWAERGGAGAGLPGNSVPRFHITWGTGPGVLEPFVRRVREHQRAGRIEFRFRHRVRGLTLTAGRVTGVHGDVLEPSDVGRGETSSRVVTGDFELTAQAVLITSGGIGGNHELVRRYWPTERLGPAPEVMLSGVPRHVDGLLQQQVVAQGGSLINPDRMWHYTEGVRNWDPVWPQHGIRILPGPSSLWLDPSGRRLPFPHIPGASSYDTLRHITTHGYPHTWFLLNRAVIKREFGLSGSEQNPDLTGKDLRLTLRRASKHVPGPVQAFMDRGEDFVVRDNLRDLVRGMNELTGGELLDYATVEREVLDRDLQVHNVAGKDAQLAIVRGARAILSERLTRVAKPAPLLDPAQGPLIAVRLSVLTRKSLGGLETDLQGRVIGAGGQPLPDLYAAGEVAGFGGGGYHGYRALEGTFLGGCLFSGRAAGRAIAGAL | not soluble
13 | METSKEFEFRPAKETSRSKSPGGIVGRLSNFARNKARHSLSEKGSNSVGGSGGAGFDKPRKDLLKEFHKCKEAQDQRLDLSSIEITSIPSPIKELTQLTELFLYKNKLTCLPTEIGQLVNLKKLGLSENALTSLPDSLASLESLETLDLRHNKLTEVPSVIYKIGSLETLWLRYNRIVAVDEQIGNLSKLKMLDVRENKIRELPSAIGKLTSLVVCLVSYNHLTRVPEEIGDCHSLTQLDLQHNDLSELPYSIGKLVNLVRIGIRYNKIRCIPSELESCQQLEEFIVESNHLQLLPPNLLTMLPKIHTVNLSRNELTAFPAGGPQQFVSTVTINMEHNQISKIPIGIFSKATRLTKLNLKENELVSLPLDMGSWTSITELNLSTNQLKVLPEDIEKLVNLEILVLSNNQLKKLPNQIGNLNKLRELDLEENELETVPTEIGFLQHLTKLWVQSNKILTLPRSIGNLCSLQDLRLGENNLTAIPEEIGHLDSLKSLYLNDNSSLHNLPFELALCQSLEIMSIENSPLSQIPPEITAGGPSLVIQYLKMQGPYRGVVMNSQ | not soluble
